Where a chain is given by its changes, count along the chain named. “And” between values parts separate entries of the source, which are not always exact repeats. Equal values may be shown once.
T1: recombinant human LAG3 Fc Chimera Protein (R&D Systems, 2319-L3) (human, UniProt P18627 23-450)
T1 construct: Bought reagent
T1 sequence (looked up): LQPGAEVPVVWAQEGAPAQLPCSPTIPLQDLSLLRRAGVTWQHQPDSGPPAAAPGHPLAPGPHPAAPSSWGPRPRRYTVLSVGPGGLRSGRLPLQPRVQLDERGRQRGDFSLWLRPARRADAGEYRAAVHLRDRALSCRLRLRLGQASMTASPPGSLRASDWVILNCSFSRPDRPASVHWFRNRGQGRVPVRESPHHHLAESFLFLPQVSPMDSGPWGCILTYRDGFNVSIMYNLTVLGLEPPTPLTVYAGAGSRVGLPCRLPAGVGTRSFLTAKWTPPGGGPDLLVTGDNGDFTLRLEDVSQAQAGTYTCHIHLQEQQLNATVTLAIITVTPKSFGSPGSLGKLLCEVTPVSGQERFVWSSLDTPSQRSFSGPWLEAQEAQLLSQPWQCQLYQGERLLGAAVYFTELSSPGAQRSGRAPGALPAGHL

T2: murine LAG3-Fc antigen (R&D Systems, 3328-L3-050) (murine, UniProt Q61790 24-442)
T2 construct: Bought reagent
T2 sequence (looked up): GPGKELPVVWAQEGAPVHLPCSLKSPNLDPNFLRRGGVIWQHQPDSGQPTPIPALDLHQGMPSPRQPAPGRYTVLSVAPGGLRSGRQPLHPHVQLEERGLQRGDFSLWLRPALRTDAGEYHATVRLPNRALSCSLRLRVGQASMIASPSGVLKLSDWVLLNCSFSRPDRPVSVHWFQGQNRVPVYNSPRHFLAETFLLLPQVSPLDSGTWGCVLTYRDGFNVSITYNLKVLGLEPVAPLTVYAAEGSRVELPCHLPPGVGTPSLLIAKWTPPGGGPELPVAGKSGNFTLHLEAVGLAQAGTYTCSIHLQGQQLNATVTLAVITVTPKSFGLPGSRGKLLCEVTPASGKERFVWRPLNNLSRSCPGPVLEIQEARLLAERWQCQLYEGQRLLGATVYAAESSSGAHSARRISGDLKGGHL

T3: human LAG3 on recombinant CHO cells (human, UniProt P18627 23-525)
T3 construct: whole, on cells; also called Lag3 cells; recombinant CHO cells expressing Lag3
T3 sequence (looked up): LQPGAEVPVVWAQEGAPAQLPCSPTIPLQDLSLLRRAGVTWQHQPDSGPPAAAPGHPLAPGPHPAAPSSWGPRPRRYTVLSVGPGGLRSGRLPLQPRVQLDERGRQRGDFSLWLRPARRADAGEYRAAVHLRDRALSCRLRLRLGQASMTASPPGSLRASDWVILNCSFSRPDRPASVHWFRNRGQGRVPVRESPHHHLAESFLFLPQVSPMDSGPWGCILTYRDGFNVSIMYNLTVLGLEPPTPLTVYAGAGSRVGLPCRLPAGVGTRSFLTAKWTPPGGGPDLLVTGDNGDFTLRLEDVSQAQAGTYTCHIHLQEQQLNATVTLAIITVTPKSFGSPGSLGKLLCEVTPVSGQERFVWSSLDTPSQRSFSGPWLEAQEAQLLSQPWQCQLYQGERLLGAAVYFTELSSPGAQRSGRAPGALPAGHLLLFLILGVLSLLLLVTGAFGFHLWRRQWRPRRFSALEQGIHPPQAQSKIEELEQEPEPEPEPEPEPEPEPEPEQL

B1: bivalent 21B11 aVH-Fc (Fc fusion)
chain: EVQLVESGGGLVQPGGSLRLSCAASGFNIKDTCIGWVRRAPGKGTELVAEICQDIGYTRYADSVKGRFTISADTSKNTAYLQMNSLRAEDTAVYYCAADESVDNFKYWGQGTTVTVSSGGGGSGGGGSDKTHTCPPCPAPEAAGGPSVFLFPPKPKDTLMISRTPEVTCVVVDVSHEDPEVKFNWYVDGVEVHNAKTKPREEQYNSTYRVVSVLTVLHQDWLNGKEYKCKVSNKALGAPIEKTISKAKGQPREPQVYTLPPSRDELTKNQVSLTCLVKGFYPSDIAVEWESNGQPENNYKTTPPVLDSDGSFFLYSKLTVDKSRWQQGNVFSCSVMHEALHNHYTQKSLSLSPGK
B2: bivalent P21A03 aVH-Fc (Fc fusion)
chain: B1 chain with Q53E, D99N, S101H, V102S, D103V, N104G, K106N
B3: bivalent 19G3 aVH-Fc (Fc fusion)
chain: B1 chain with D31Y, T32Q, Q53S, D54Y, I55D, D99E, D103E, N104G, K106I
B4: bivalent P10C3 aVH-Fc (Fc fusion)
chain: B1 chain with Q53T, I55A, D99S, V102P, D103S, N104G, K106R
B5: bivalent P9G1 aVH-Fc (Fc fusion)
chain: B1 chain with A98G, D99E, S101G, V102A, D103T
B6: bivalent P10D1 aVH-Fc (Fc fusion)
chain: B1 chain with N28S, G35A, Q53E, D99K, S101A, V102G, D103V, N104G, K106D
B7: SEQ ID NO 22 (VHH)
VHH: EVQLVESGGGLVQPGGSLRLSCAASGFNIKDTYIGWVRRAPGKGEELVARIYPTNGYTRYADSVKGRFTISADTSKNTAYLQMNSLRAEDTAVYYCAKYVRYFDYWGQGTLVTVSS
notes: Tested as bacterial supernatant; the range 21-28 may alternate DNA and protein entries
B8: SEQ ID NO 24 (VHH)
VHH: EVQLVESGGGLVQPGGSLRLSCAASGFNIKDTYIGWVRRAPGKGEELVARIYPTNGYTRYADSVKGRFTISADTSKNTAYLQMNSLRAEDTAVYYCAKYYPRTYLDFDYWGQGTLVTVSS
notes: as for B7
B9: SEQ ID NO 28 (VHH)
VHH: EVQLVESGGGLVQPGGSLRLSCAASGFNIKDTYIGWVRRAPGKGEELVARIYPTNGYTRYADSVKGRFTISADTSKNTAYLQMNSLRAEDTAVYYCAKRSHYSYFDYWGQGTLVTVSS
notes: as for B7

Target: T1, recombinant human LAG3 Fc Chimera …
Experiment: ELISA, plate coated with human LAG3 Fc chimera

EC50	OD max	Binder
0.0157 µg/mL and 0.2 nM	1.1 OD	B1
0.0901 µg/mL and 1.2 nM	1.8 OD	B2
0.0342 µg/mL and 0.5 nM	1 OD	B3
0.123 µg/mL and 1.6 nM	0.8 OD	B4
0.0132 µg/mL and 0.2 nM	1.9 OD	B5
0.113 µg/mL and 1.5 nM	0.9 OD	B6

Target: T2, murine LAG3-Fc antigen (R&D Systems, …)
Experiment: ELISA using murine LAG3-Fc antigen

binding result	Binder
no binding	B1
no binding	B2
no binding	B3
no binding	B4
no binding	B5
no binding	B6

Target: T4, Lag3 on Lag3+ NFAT Jurkat effector cells (Promega #CS194801)
Experiment: cell-based or functional assay

EC50 of restoration of the NFAT luciferase signal (NFAT Lag3 reporter assay: Lag3+ Jurkat, Raji cells, SED)	Binder
0.6 µg/mL	B1
3.31 µg/mL	B2
3.9 µg/mL	B4
0.65 µg/mL	B5
4.14 µg/mL	B6

Target: T5, soluble human Lag3-IgG1-Fc with biotinylated C-terminal Avi-tag (human, biotin on the C-terminal Avi-tag)
T5 construct: also called LAG3-Fc-avi; biotinylated LAG3-Fc antigen
Experiment: A375 MHCII competition ELISA at 3 µg/ml, biotinylated Lag3 250 ng/ml; competitor MHCII on A375 cells

% Inhibition	Binder
96.7%	B1
97.4%	B2
91.9%	B3
84.9%	B4
96.3%	B5
93.4%	B6

Target: T6, cynomolgus LAG3 on transiently transfected HEK293F cells (cynomolgus)
T6 construct: whole, on cells; also called cyno LAG3; cynomolgus Lag3-positive HEK cells
Experiment: flow cytometry on HEK293F cells transfected with cyno LAG3, 10 µg/ml

LAG3 positive cells (%)	Signal intensity (Geo Mean)	Binder
78.9%	2750 Geo Mean	B1
80.3%	2560 Geo Mean	B3

Target: T7, Lag3 on cynomolgus PBMC/T cells (cynomolgus)
T7 construct: whole, on cells
Experiment: flow cytometry, CD3/CD28-activated cynomolgus PBMC, 10 µg/ml

Percentage of Lag3 positive cells	Binder
52.2%	B2
54.3%	B3
54.1%	B5
61.7%	B6

Target: T5, soluble human Lag3-IgG1-Fc with …
Experiment: A375 MHCII competition ELISA, biotinylated Lag3 250 ng/ml; competitor MHCII on A375 cells

IC50	Binder
0.113 µg/mL and 1.5 nM	B1
0.0581 µg/mL and 0.8 nM	B2
0.224 µg/mL and 3 nM	B3
0.242 µg/mL and 3.2 nM	B4
0.0408 µg/mL and 0.5 nM	B5
0.0933 µg/mL and 1.2 nM	B6

Target: T4, Lag3 on Lag3+ NFAT Jurkat effector …
Experiment: cell-based or functional assay
Remark: another data set of the same source

IC50 for near-complete reduction of luciferase activity (modified NFAT Lag3 reporter assay, Lag3+ Jurkat cells alone)	Binder
0.064 µg/mL	B1
0.078 µg/mL	B2
0.038 µg/mL	B5
0.104 µg/mL	B6

Target: T8, biotinylated DR5-Fc-avi (extracellular domain of Death receptor 5, amino acids 1 to 152, fused to human IgG1 … (biotin on the C-terminal avi-tag))
T8 construct: also called DRS; Death receptor 5 ECD
Experiment: ELISA, biotinylated DR5 antigen on neutravidin plates, bacterial supernatants, anti-Flag/HRP

Binder	binding result
B7	binds
B8	binds
B9	binds

Target: T3, human LAG3 on recombinant CHO cells
Experiment: cell ELISA on CHO cells expressing human LAG3;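 also: bivalent Fc-format binders titrated in threefold steps from 6 µg/mL, incubated with the cells 2 h at 4 °C, bound antibody detected by HRP-coupled anti-human IgG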

EC50	OD max	Binder
0.0428 µg/mL and 0.6 nM	1.3 OD	B1
0.0401 µg/mL and 0.5 nM	1.2 OD	B2
0.0636 µg/mL and 0.8 nM	1.3 OD	B3
0.0735 µg/mL and 1 nM	1.2 OD	B4
0.0173 µg/mL and 0.2 nM	1.2 OD	B5
0.029 µg/mL and 0.4 nM	1.2 OD	B6

Target: T7, Lag3 on cynomolgus PBMC/T cells
Experiment: flow cytometry, non-activated cynomolgus PBMC, 10 µg/ml

Percentage of Lag3 positive cells	Binder
20.8%	B2
17%	B3
24.4%	B5
16.9%	B6

Target: T1, recombinant human LAG3 Fc Chimera …
Experiment: SPR (Biacore), aVH-Fc captured by anti-human Fc, human LAG-3 Fc chimera as analyte, 25 C

koff	t1/2	Binder
1.8e-05 s⁻¹	1.78 h	B1
1e-05 s⁻¹	19.3 h	B2
0.00029 s⁻¹	0.672 h	B3
8.9e-05 s⁻¹	2.17 h	B4
2e-05 s⁻¹	9.82 h	B5
0.00011 s⁻¹	1.7 h	B6

Reference: US20200354457A1 (Hoffmann-La Roche, published 2020)
